Laboratory results taken from the DeepSol protein solubility set.

Experiment: soluble on expression in E. coli; label from the status in PepcDB or PDB records
In the case of “SPPENRGEHETGRTLHIATYNIHKGLSFFNQRLILHELRDQLHGLDVDVVFLQEVVGEHALHATRFRDWPRNTQYEFLADSMWPDFAYGKNAVYGHGHHGNAILSRFSIVNWENEDISAHRFESRGLLHCELAIPGWKDTLHCICVHLGLFRRGRSQQLEAIEKRIRQLVSPDAPLVVAGDFNDWRGAANPLLASRLNLVEVFQHTHGKAARSFPSVLPLLRLDRIYIRGFQVKNAQILHNRPWSRISDHAVLSANIMRT”, the “soluble on expression in E. coli” value was “not soluble”. In the case of “SQHFGRPRTTHEFLFGALAELVDNARDADATRIDIYAERREDLRGGFMLCFLDDGAGMDPSDAASVIQFGKSAKRTPESTQIGQYGNGLKSGSMRIGKDFILFTKKEDTMTCLFLSRTFHEEEGIDEVIVPLPTWNARTREPVTDNVEKFAIETELIYKYSPFRTEEEVMTQFMKIPGDSGTLVIIFNLKLMDNGEPELDIISNPRDIQMAETSPEGTKPERRSFRAYAAVLYIDPRMRIFIHGHKVQTKRLSCCLYKPRMYKYTSSRFKTRAEQEVKKAEHVARIAEEKAREAESKARTLEVRLGGDLTRDSRVMLRQVQNRAITLRREADVKKRIKEAKQRALKEPKELNFVFGVNIEHRDLDGMFIYNCSRLIKMYEKVGPQLEGGMACGGVVGVVDVPYLVLEPTHNKQDFADAKEYRHLLRAMGEHLAQYWKDIAIAQRGIIKFWDEFGYLSANWNQPPSSELRYKRRRAMEIPTTIQCDLCLKWRTLPFQLSSVEKDYPDTWVCSMNPDPEQDRCEASEQKQKVPLGTFRKDMKTQEEKQKQLTEKIRQQQEKLEALQKTTPIRSQADLKKLPLEVTTRPSTEEPVRRPQRPRSPPLPAVIRNAPSRPPSLPTPRPASQPRKAPVISSTPKLPALAAREEASTSRLLQPPEAPRKPANTLVKTASRPAPLVQQLSPSLLPNSKSPREVPSPKVIKTPVVKKTESPIKLSPATPSRKRSVAVSDEEEVEEEAERRKERCKRGRFVVKEEKKDSNELSDSAGEEDSADLKRAQKDKGLHVEVRVNREWYTGRVTAVEVGKHVVRWKVKFDYVPTDTTPRDRWVEKGSEDVRLMKPPSPEHQSLDTQQEGGEEEVGPVAQQAIAVAEPSTSECLRIEPDTTALSTNHETIDLLVQILRNCLRYFLPPSFPISKKQLSAMNSDELISFPLKEYFKQYEVGLQNLCNSYQSRADSRAKASEESLRTSERKLRETEEKLQKLRTNIVALLQKVQEDIDINTDDELDAYIEDLITKGD”, the “soluble on expression in E. coli” value was “soluble”. With “SQLNPTVMISGSSANNHRFDNLVAILNRQSTTHSLLRVQVNEDNSISYSGRIRPNDSQPYIVIGFQNNSDGYANIKRQAKWLEIAMKFLQKRYHFNHFNAFGHSNGGLDWTIYLEKYFNQKSSTIGTLMTVGSPFNFSEKSESNRTQMLTDLIKNRSKLPRDMTVYSIAGTETYNDDGIVPIESVLSGKYVFQKNVHSYTQITVSGNDSEHSDLPTNPQIVQLIQRDILDGRGQKQSSNPVFNNH” the “soluble on expression in E. coli” value was “not soluble”. For “SQQALRILEVRSAYCKNDFEWDNMKRLAFKNVDDSNTRLMREYVLETSHVETDSDK”, the “soluble on expression in E. coli” value was “soluble”. For “SRAYDLVVIGAGSGGLEAGWNAASLHKKRVAVIDLQKHHGPPHYAALGGTCVNVGCVPKKLMVTGANYMDTIRESAGFGWELDRESVRPNWKALIAAKNKAVSGINDSYEGMFADTEGLTFHQGFGALQDNHTVLVRESADPNSAVLETLDTEYILLATGSWPQHLGIEGDDLCITSNEAFYLDEAPKRALCVGGGYISIEFAGIFNAYKARGGQVDLAYRGDMILRGFDSELRKQLTEQLRANGINVRTHENPAKVTKNADGTRHVVFESGAEADYDVVMLAIGRVPRSQTLQLEKAGVEVAKNGAIKVDAYSKTNVDNIYAIGDVTDRVMLTPVAINEGAAFVDTVFANKPRATDHTKVACAVFSIPPMGVCGYVEEDAAKKYDQVAVYESSFTPLMHNISGSTYKKFMVRIVTNHADGEVLGVHMLGDSSPEIIQSVAICLKMGAKISDFYNTIGVHPTSAEELCSMRTPAYFYEKGKRVEKIDSNL”, the “soluble on expression in E. coli” value was “soluble”. With “SRGMTPGSRLIDYQLIDSTEELAAILGCGHPSSIHKITRVRLANDIPMAIESSHIPFELAGELNESHFQSSIYDHIERYNSIPISRAKQELEPSAATTEEANILGIQKGAPVLLIKRTTYLQNGTAFEHAKSVYRGDRYTFVHYMDRLS” the “soluble on expression in E. coli” value was “not soluble”. With “SRIKMKKARKILAEKRAAAPVVSVPCIPPHRLSKITNRLTIQRKSQFMQRLHSYWTLKRQSRNGVPLLRRLQTHLQSQRNCDQVGRDSEDKNWALKEQLKSWQRLRHDLERARLLVELIRKREKLKRETIKVQQIAMEMQLT” the “soluble on expression in E. coli” value was “not soluble”. With “SRLYRHNLMEDVFNMENESFMQETRLMENEYSVNLPTRFYYKKRWNNGFVNIVNIFRACMVIGTPGSGKSYAIVNSYIRQLIAKGFAIYIYDYKFDDLSTIAYNSLLKNMDKYEVKPRFYVINFDDPRRSHRCNPINPEFMTDISDAYEASYTIMLNLNRTWIEKQGDFFVESPIILLAAIIWYLKIYKNGIYCTFPHAVELLNKPYSDLFTILTSYPELENYLSPFMDAWKGNAQDQLQGQIASAKIPLTRMISPQLYWVMTGNDFSLDINNPKEPKLLCVGNNPDRQNIYSAALGLYNSRIVKLINKKKQLKCAVIIDELPTIYFRGLDNLIATARSNKVGVLLGFQDFSQLTRDYGEKESKVIQNTVGNIFSGQVVGETAKTLSERFGKVLQQRQSVSINRQDVSTSINTQLDSLIPASKIANLSQGTFVGAVADNFDERIEQKIFHAEIVVDHTKISAEEKAYQKIPVINDFKDRNGNDIMMQQIQRNYDQIKADAQAIINEEMRRIKNDPELRKRLGLEDEKGKDPDKS” the “soluble on expression in E. coli” value was “not soluble”. For “SSAESVSCTVKSPVALQIGDAVSDSSRPGVYITDITLAEPVNIQEISFKNFYTAYLTVRLQRRHGSTASKWVTCLKNYCLMGNPHAEAGSHDYFSIYRQQMSTEPDNVTTVRLILRQPSSEWLSFSIEEINIYPCTKEDSERDVPAWLSTLTPVDEPLDLKGLPDPETVSSSIQQMWALTEIMQASQTAASIGRFDVEGAYDVKLLSYT”, the “soluble on expression in E. coli” value was “not soluble”. In the case of “SSAEVKVTGQNQEQFLLLAKSAKGAALATLIHQVLEAPGVYVFGELLDMPNVRELAESDFASTFRLLTVFAYGTYADYLAEARNLPPLTEAQKNKLRHLSVVTLAAKVKCIPYAVLLEALALRNVRQLEDLVIEAVYADVLRGSLDQRNQRLEVDYSIGRDIQRQDLSAIARTLQEWCVGCEVVLSGIEEQVSRANQHKEQQLGLKQQIESEVANLKKTIKVTTAAAAAATSQDPEQHLTELREPAPGTNQRQPSKKASKGKGLRGSAKIWSKSN”, the “soluble on expression in E. coli” value was “soluble”. With “SSAQFDHVTVIKKSNVYFGGLCISHTVQFEDGTKKTLGVILPTEQPLTFETHVPERMEIISGECRVKIADSTESELFRAGQSFYVPGNSLFKIETDEVLDYVCHLE” the “soluble on expression in E. coli” value was “not soluble”. With “SSESKQDEDSGTSASLSKASKETSCKRQNREGSWDSSLVMKKPKQNQVSTVTDSEVALVSAYLEQRRVRRHSQFLRVNQIQQDSDTTECDSEESNSGASSWKESESDHHLSPANIKRRKSVSRQRDMENYEVRQRPCLHCKAMRTREWLTRHFPPSASVTTPMKGEIQEENLTPGTNTKFSKF” the “soluble on expression in E. coli” value was “soluble”. With “SSGSKSSNSSAKKSAGKPQQGGDLVVGSIGEPTLFNSLYSTDDASTDIENMLYSFLTKTDEKLNVKLSLAESIKELDGGLAYDVKIKKGVKFHDGKELTADDVVFTYSVPLSKDYKGERGSTYEMLKSVEKKGDYEVLFKLKYKDGNFYNNALDSTAILPKHILGNVPIADLEENEFNRKKPIGSGPFKFKEWKQGQYIKLEANDDYFEGRPYLDTVTYKVIPDANAAEAQLQAGDINFFNVPATDYKTAEKFNNLKIVTDLALSYVYIGWNEKNELFKDKKVRQALTTALDRESIVSQVLDGDGEVAYIPESPLSWNYPKDIDVPKFEYNEKKAKQMLAEAGWKDTNGDGILDKDGKKFSFTLKTNQGNKVREDIAVVVQEQLKKIGIEVKTQIVEWSALVEQMNPPNWDFDAMVMGWSLSTFPDQYDIFHSSQIKKGLNYVWYKNAEADKLMKDAKSISDRKQYSKEYEQIYQKIAEDQPYTFLYYPNNHMAMPENLEGYKYHPKRDLYNIEKWWLAK” the “soluble on expression in E. coli” value was “soluble”. With “SSLRLPSAAELSGQWVLSGAEQHCDIRLNTDVLDGTTWKLAGDTACLQKLLPEAPVGWRPTPDGLTLTQADGSAVAFFSRNRDRYEHKLVDGSVRTLKKKA” the “soluble on expression in E. coli” value was “soluble”. With “SSSEQKSQHCKPEEGVEAQEEALGLVGAQAPTTEEQEAAVSSSSPLVPGTLEEVPAAESAGPPQSPQGASALPTTISFTCWRQPNEGSSSQEEEGPSTSPDAESLFREALSNKVDELAHFLLRKYRAKELVTKAEMLERVIKNYKRCFPVIFGKASESLKMIFGIDVKEVDPTSNTYTLVTCLGLSYDGLLGNNQIFPKTGLLIIVLGTIAMEGDSASEEEIWEELGVMGVYDGREHTVYGEPRKLLTQDWVQENYLEYRQVPGSNPARYEFLWGPRALAETSYVKVLEHVVRVNARVRIAYPSLREAALLEEEEGV” the “soluble on expression in E. coli” value was “soluble”. In the case of “SSSGYSSLEEDEDFFFTARTSFFRRAPPGKSRSGQPDVEKEKETHNYLSKEEIKEKVHKYNSAVTDKLKMTLNSNGIYTGFIKVQMELCKPAQPSPEPSSGGCMNTLHISSTNTVGEVIEALLRKFLVTESPTKFALYKRCHREDQVYACKLSDREHPLYLRLVAGPRTDTLSFVLREHEIGEWEAFSLPELQNFLRILDKEEDEQLQSLKRRYTAYRQKLEEALGEVWKPG”, the “soluble on expression in E. coli” value was “soluble”. With “SSSSLVEAAAGLPEKGLMVCKWLGTGSAGYGGYKASEYFFPIDNEEFRENLEDWESTLQSWEKLKNYLEGMHKGPVGNQTRTH” the “soluble on expression in E. coli” value was “soluble”. For “STFQFNFTIEDHLENELTPIRDGALTLDSSKELSVSESQKGEERDRKCSAEQFDLPQDHLWEHKSMENAAPSQDTDSPLSAASSSRNLEPHGKQPSLRAAKEHAMPKDLKKMLENKVIETLPGFQHVKLSVVKTILLKENFPGENIVSKSFSSHSDLITGVYEGGLKIWECTFDLLAYFTKAKVKFAGKKVLDLGCGSGLLGITAFKGGSKEIHFQDYNSMVIDEVTLPNVVANSTLEDEENDVNEPDVKRCRKPKVTQLYKCRFFSGEWSEFCKLVLSSEKLFVKYDLILTSETIYNPDYYSNLHQTFLRLLSKNGRVLLASKAHYFGVGGGVHLFQKFVEERDVFKTRILKIIDEGLKRFIIEITFKFPG”, the “soluble on expression in E. coli” value was “not soluble”. For “STGPVAPLPTPPNFPNDIALFQQAYQNWSKEIMLDATWVCSPKTPQDVVRLANWAHEHDYKIRPRGAMHGWTPLTVEKGANVEKVILADTMTHLNGITVNTGGPVATVTAGAGASIEAIVTELQKHDLGWANLPAPGVLSIGGALAVNAHGAALPAVGQTTLPGHTYGSLSNLVTELTAVVWNGTTYALETYQRNDPRITPLLTNLGRCFLTSVTMQAGPNFRQRCQSYTDIPWRELFAPKGADGRTFEKFVAESGGAEAIWYPFTEKPWMKVWTVSPTKPDSSNEVGSLGSAGSLVGKPPQAREVSGPYNYIFSDNLPEPITDMIGAINAGNPGIAPLFGPAMYEITKLGLAATNANDIWGWSKDVQFYIKATTLRLTEGGGAVVTSRANIATVINDFTEWFHERIEFYRAKGEFPLNGPVEIRCCGLDQAADVKVPSVGPPTISATRPRPDHPDWDVAIWLNVLGVPGTPGMFEFYREMEQWMRSHYNNDDATFRPEWSKGWAFGPDPYTDNDIVTNKMRATYIEGVPTTENWDTARARYNQIDPHRVFTNGFMDKLLP”, the “soluble on expression in E. coli” value was “soluble”. With “STGQGQSASGSSAWSTVFRHVRYENLIAGVSGGVLSNLALHPLDLVKIRFAVSDGLELRPKYNGILHCLTTIWKLDGLRGLYQGVTPNIWGAGLSWGLYFFFYNAIKSYKTEGRAERLEATEYLVSAAEAGAMTLCITNPLWVTKTRLMLQYDAVVNSPHRQYKGMFDTLVKIYKYEGVRGLYKGFVPGLFGTSHGALQFMAYELLKLKYNQHINRLPEAQLSTVEYISVAALSKIFAVAATYPYQVVRARLQDQHMFYSGVIDVITKTWRKEGVGGFYKGIAPNLIRVTPACCITFVVYENVSHFLLDLREKRK” the “soluble on expression in E. coli” value was “soluble”.
